According to paper PMC8216286:

Experiments:
[1] = molecular target: Staphylococcus aureus Cas9 (SauCas9), wild type (Staphylococcus aureus) (UniProt J7RUA5); experiment: BLI; biotinylated SauCas9 protein (or SauCas9-sgRNA complex) loaded on streptavidin biosensors for 60 s; 20°C; 20 mM HEPES pH 7.55, 100 mM KCl, 10 mM MgCl2, 1 mM DTT, 5% glycerol; four or five concentrations of sample
[2] = test system: SauCas9 (Staphylococcus aureus); experiment: BLI; conditions: 10 mM Mg2+, BLI: 20 mM HEPES pH 7.55, 100 mM KCl, 10 mM MgCl2, 1 mM DTT, 5% (w/v) glycerol, 20 C, complex for crystals: 10 mM Tris-HCl pH 8.0, 300 mM NaCl, 3 mM DTT
[3] = molecular target: SauCas9 (N580A/C946A) (Staphylococcus aureus) (UniProt J7RUA5); experiment: crystal structure; SauCas9 (N580A/C946A)-sgRNA-AcrIIA14ct-dsDNA quaternary complex, mixed at 1:1.2:5:2, purified by SEC; hanging drop, 20°C; 2.22 Å

In the case of “AcrIIA14ct mutant H56K (domain or fragment)”, the Kd [1] is reported as 58000 pM.
For SauCas9 sgRNA / target DNA (BLI), the Kd ([2]; target DNA as analyte, SauCas9-sgRNA complex presumably immobilized) was 535 pM.
In the case of “AcrIIA14ct (C-terminal domain of AcrIIA14, residues 60-159) (domain or fragment)”, the Kd [1] is reported as 5.58 pM and the stoichiometry N (AcrIIA14ct per SauCas9) [3] is reported as 1.
With SauCas9 sgRNA (BLI) the Kd ([2]; biotinylated SauCas9 on streptavidin sensor) was 473 pM.
